In paper PMC11470125:

Target: T1, LbuCas13a (Leptotrichia buwadei? (printed only as …, UniProt C7NBY4 1-1159))
T1 sequence: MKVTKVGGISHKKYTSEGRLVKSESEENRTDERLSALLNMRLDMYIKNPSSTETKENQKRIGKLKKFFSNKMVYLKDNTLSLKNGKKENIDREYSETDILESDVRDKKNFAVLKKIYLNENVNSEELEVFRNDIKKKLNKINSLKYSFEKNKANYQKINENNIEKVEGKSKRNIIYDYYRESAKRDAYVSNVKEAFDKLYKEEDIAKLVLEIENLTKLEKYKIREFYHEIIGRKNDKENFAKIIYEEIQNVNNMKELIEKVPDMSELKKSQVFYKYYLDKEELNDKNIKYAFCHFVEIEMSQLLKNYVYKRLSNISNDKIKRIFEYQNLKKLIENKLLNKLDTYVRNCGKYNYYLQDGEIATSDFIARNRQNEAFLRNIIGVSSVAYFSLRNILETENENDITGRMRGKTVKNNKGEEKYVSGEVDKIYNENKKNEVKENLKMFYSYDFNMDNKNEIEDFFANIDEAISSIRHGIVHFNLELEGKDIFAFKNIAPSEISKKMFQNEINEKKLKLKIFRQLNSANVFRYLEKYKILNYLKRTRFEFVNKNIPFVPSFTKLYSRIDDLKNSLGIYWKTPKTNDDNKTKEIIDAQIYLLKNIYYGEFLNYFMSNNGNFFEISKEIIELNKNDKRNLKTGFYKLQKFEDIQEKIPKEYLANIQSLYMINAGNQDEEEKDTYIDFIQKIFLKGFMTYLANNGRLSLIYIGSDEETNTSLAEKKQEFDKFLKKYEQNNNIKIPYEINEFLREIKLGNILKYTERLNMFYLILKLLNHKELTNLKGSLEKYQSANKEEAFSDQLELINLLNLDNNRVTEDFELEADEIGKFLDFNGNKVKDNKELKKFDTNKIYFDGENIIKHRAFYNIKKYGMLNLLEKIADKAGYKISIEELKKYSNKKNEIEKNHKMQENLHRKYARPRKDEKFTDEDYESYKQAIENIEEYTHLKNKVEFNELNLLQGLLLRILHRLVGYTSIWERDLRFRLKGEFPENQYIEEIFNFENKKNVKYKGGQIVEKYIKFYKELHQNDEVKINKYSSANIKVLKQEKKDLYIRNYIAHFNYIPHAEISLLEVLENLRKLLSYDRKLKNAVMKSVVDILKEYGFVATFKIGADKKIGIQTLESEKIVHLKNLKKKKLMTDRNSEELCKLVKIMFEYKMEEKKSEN
Assay: competition

B1: Cas13a crRNA with scrambled ssDNA, unlabelled competitor (mixed)
RNA: GAUUUAGACCACCCCAAAAAUGAAGGGGACUAAAACUGGGUGUUUGACAAGUUGUAUUGCAAUC
DNA: TCCACATCATCACTATTAACAAGGAACACTCCGAGGGT
B1: no binding.
